The target in one test is T1, human FGFR1c (human, UniProt P11362 22-822).
T1 construct: Full length (GenBank NP-075598), expressed on transfected 293T cells; also called huFGFR1c; FGFR1c alone
Description: flow cytometry, transfected HEK293T; mock-transfected cells 632. A general note: Flow cytometry measures light scatter and fluorescence of single cells or particles in a stream.

Test [1] addresses T2, human FGFR1c/human β-Klotho complex (FGF21 receptor) (human, UniProt P11362 22-822).
T2 construct: Both full-length proteins co-expressed on cells (HEK293T, CHO, L6); also called HuFGFR1c/Hu β-Klotho; huFGF21R
Described as above.
Description: (§1) This solution was then added dropwise to 10 million HEK293T cells in 10 ml of media. 24 hours following transfection, the cells were washed and 50,000 cells were stained with each primary antibody, 50 μl of unpurified hybridoma supernatant was diluted 1:2 and used for staining cells. After a one hour incubation at 4° c., the cells were washed and an anti-Human Fc-specific secondary was added. Stained cells were then analyzed on a flow cytometer.

Test [2] concerns the target T3, cynomologous monkey FGFR1c/cynomologous monkey β-Klotho (co-transfected) (cynomologous monkey).
T3 construct: whole, on cells; also called Cyno FGFR1c/Cyno β-Klotho
Described as above.
Description: as §1

For test [3], the target named is T2, human FGFR1c/human β-Klotho complex …. Description: flow cytometry, transfected HEK293T; mock-transfected cells 695.
Description: as §1
In test [4] the target is T3, cynomologous monkey FGFR1c/cynomologous …. Described as above.
Description: as §1

B1: 67F5.1 (antibody, V domains shown)
VH: QVQLKESGPGLVKPSETLSLTCTVSGGSISSYYWSWIRQPPGKGLEWIGYIYYSGNTNYNPSLKSRVTISVDTSKNQFSLKLSSVTAADTAVYYCAREYYYGSGSYYPWGQGTLVTVSS
VL: EIVMTQSPATLSVSPGERVTLSCRASQSVSSNLAWYQQKPGQAPRLLIHGSSNRAIGIPARFSGSGSGTEFTLTISSLQSADFAVYNCQQYEIWPWTFGQGTKVEIKR
With B1, the GeoMean with human FGFR1c came to 757; in test [1], 13900; in test [2] it was 15800.

B2: 66G2.1 (antibody, V domains shown)
VH: QVQLVESGGGVVQPGRSLRLSCAASGFTFSSYGMHWVRQAPGKGLEWVAGISYDGSNKNYADSVKGRITISRDNPKNTLYLQMNSLRAEDTAVYYCATTVTKEDYYYYGMDVWGQGTTVTVSS
VL: DIQMTQSPSSLSASVGDRVTITCRASQGIRNDLGWYQQKPGKAPKRLIYAASNLQSGVPSRFSGSGSGTKFTLTINSLQPEDFATYYCLQLNGYPLTFGGGTKVEIKR
Consider B2, for which the GeoMean turned out to be 16700 in test [3] and 21600 in test [4].

These data come from patent US20120328616A1 (Amgen, published 2012).
